The text below walks through data of patent US5559019.

Test [1] addresses SF2/ASF (wild type) (Homo sapiens (Human)) (UniProt Q07955).
For test [2], the target named is myelin basic protein (MBP).

Regarding “SR protein-specific kinase, SRPK1 (enzyme)”, in test [1], the Km for phosphorylation of SF2/ASF amounted to 0.07 µM and the Vmax for phosphorylation of SF2/ASF was 0.45 pmol per min. Also, in test [2], the Km for phosphorylation of MBP is 5.8 µM and the Vmax for phosphorylation of MBP is 0.02 pmol per min.
